This is an account of results in patent US20250186614A1, “COMPACT DRUG RESPONSIVE DOMAINS FOR REGULATION OF FUNCTION/ABUNDANCE AND DELIVERY OF POLYPEPTIDE PAYLOADS” (OBSIDIAN THERAPEUTICS, INC., priority 2022, published 2025).

Like-named read-outs stand apart in the source and are kept apart here.

Test [1] is described as follows: Example 4: dose response of FKBP constructs 160-255, Ec50, Ec90 and fold change (raw and normalized to mCherry). The settings on record: for FC (fold change): fold change during initial analysis. Format: cell-based. How it is done: Additional experiments were performed for constructs FKBP-160-292.
The subject of another test is Jurkat cells. The test can be described thus: Tacrolimus dose response of FKBP13-AcGFP-mCherry constructs stably transduced into Jurkat cells, GFP MFI by flow cytometry. Set-up: Basal: unit not given here. The settings on record: for Fold Change: Jurkat cells, Table 13. It is filed as cell-based. The method, boiled down: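 GFP geometric MFI was read by flow cytometry in mCherry+ cells and curve-fitted against tacrolimus dose. Cells were Jurkat E6-1, lentivirus-transduced with FKBP13-AcGFP-mCherry fusion constructs until 10-25% mCherry-positive on day 5 post-transduction.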
In general terms: A flow cytometer gives signals particle by particle.

[2] abbreviates: FKBP constructs 160-255, not normalized, read-out: EC90.
Setting [3] is: normalized to mCherry, read-out: EC90 (Norm).

B1: FKBP-162 (protein)
chain: HCPIKSRKGDVLHAHYTGKLEDGTEFDSSLPRNQPFVFSLGTGERIKGWDQGLLGMCEGEKRKLVIPSELGYGERGWPPKIPGGATLVFEVELLKIE
modifications: C-terminal R deleted; Description of sequence: Construct Name: FKBP-162; Mutation(s): Q72R Q84E A117W DRD M54A del c-term R V85R
As for B1, the values for the EC90 in test [1] (setting [2]) and in test [1] (setting [3]) were 1.8 µM and 1.87 µM, respectively. For the same molecule, the “FC (fold change)” value in test [1] was determined as 46.6.

B2: FKBP-203: FKBP13 DRD-AcGFP construct of Table 10 (protein)
chain: HCPIKSRKGDVLHAHYTGKLEDGTEFDSSLPRNQLFVFSLGTGERIKGWDQGLLGMCEGEKRKLVIPSELGYGERGWPPKIPGGATLVFEVELLKIER
modifications: Description of sequence: Construct Name: FKBP-203; Mutation(s): Q72R Q84E A117W V85R DRD M54A P75L
Turning to B2, the EC90 was 0.657 µM in test [1] (setting [2]) and 0.747 µM in test [1] (setting [3]). In test [1], the “FC (fold change)” value is recorded as 66.0.

B3: FKBP-205 (protein)
chain: HCPIKSRKGDVLHAHYTGKLEDGTEFDSSLPRNQPFVFSLGTGERIKGWDQGLLGMCEGEKRKVVIPSELGYGERGWPPKIPGGATLVFEVELLKIER
modifications: Description of sequence: Construct Name: FKBP-205; Mutation(s): Q72R Q84E A117W V85R DRD M54A L104V
Regarding B3, the EC90 in test [1] (setting [2]) is 0.183 µM; in test [1] (setting [3]), 0.184 µM. In addition, the “FC (fold change)” value in test [1] amounted to 30.1.

B4: FKBP-216 (protein)
chain: HCPIKSRKGDVLHAHYTGKLYDGTEFDSSLPRNQPFVFSLGTGEVIKGWDQGLLGMCEGEWRKLVIPSELGYGERGWPPKIPGGATLVFEVELLYIER
modifications: Description of sequence: Construct Name: FKBP-216; Mutation(s): Q72R Q84E A117W DRD M54A E61Y K101W K135Y
In the case of B4, the EC90 in test [1] (setting [2]) amounted to 14.1 µM; in test [1] (setting [3]), 14.5 µM. Also, the “FC (fold change)” value in test [1] worked out at 27.6.

B5: FKBP-207 (protein)
chain: HCPIKSRKGDVLHAHYTGKLEDGTEFDSSLPRNQPFVFSLGTGERIKGWDQGLLGMCEGEKRKLVIPSELGYGERGWPPKIPGGATLVFEVELLKVER
modifications: Description of sequence: Construct Name: FKBP-207; Mutation(s): Q72R Q84E A117W V85R DRD M54A I136V
On to B5, for which the EC90 in test [1] (setting [2]) turned out to be 0.311 µM; in test [1] (setting [3]), 0.302 µM. The “FC (fold change)” value in test [1] was 35.4.

B6: FKBP-212 (protein)
chain: HCPIKSRKGDVLLAHYTGKLEDGTEFDSSLPRNQPFVFSLGTGERIKGWDQGLLGMCEGEKRKLVIPSELGYGERGWPPKIPGGATLVFEVELLKIER
modifications: Description of sequence: Construct Name: FKBP-212; Mutation(s): Q72R Q84E A117W V85R DRD M54A H53L
As for B6, the results for the EC90 in test [1] (setting [2]) and in test [1] (setting [3]) were 0.299 µM and 0.317 µM, respectively. Moreover, the “FC (fold change)” value in test [1] was 40.2.

B7: FKBP-257: FKBP13 DRD-AcGFP construct of Table 10 (protein)
chain: HCPIKSRKGDVLHMHYTGKLEDGTEFDSSLPRNQPFVFSLGTGERIKGWDQGLLGMCEGEKRKLVIPSELGYGERGWPPKIPGGATLVFEVELLKIFR
modifications: Description of sequence: Construct Name: FKBP-257; Mutation(s): Q72R Q84E A117W V85R DRD E137F
In the test with Jurkat cells (FIG. 41), B7 showed a Basal of 98, an FC of 59 and a Peak of 5501. For the same molecule, in the test with Jurkat cells (FIG. 43, BR1 (Biorep 1)), the Basal was determined as 107, the FC was determined as 59.79 and the “At 10 uM” value was determined as 6397. In addition, in the test on Jurkat cells (FIG. 43, BR2 (Biorep 2)), the Basal is 118, the FC was found to be 50.39 and the “At 10 uM” value stood at 5946. For the same molecule, in the test on Jurkat cells (tacrolimus, FIGS. 29 and 30), the FC was determined as 65. In the test with Jurkat cells (tacrolimus), the “Fold Change” value is recorded as 65.

B8: FKBP-211 (protein)
chain: HCPIKSRKGDVLHAHYTGKLESGTEFDSSLPRNQPFVFSLGTGERIKGWDQGLLGMCEGEKRKLVIPSELGYGERGWPPKIPGGATLVFEVELLKIER
modifications: Description of sequence: Construct Name: FKBP-211; Mutation(s): Q72R Q84E A117W V85R DRD M54A D62S
As for B8, the EC90 in test [1] (setting [2]) stood at 0.452 µM; in test [1] (setting [3]), 0.481 µM. Further, the “FC (fold change)” value in test [1] was 35.7.

B9: FKBP-204 (protein)
chain: HCPIKSRKGDVLHAHYTGKLEDGTEFDSSLPRNQPFVFSLGTGERIKGWAQGLLGMCEGEKRKLVIPSELGYGERGWPPKIPGGATLVFEVELLKIER
modifications: Description of sequence: Construct Name: FKBP-204; Mutation(s): Q72R Q84E A117W V85R DRD M54A D90A
With B9, the EC90 in test [1] (setting [2]) was determined as 15.2 µM; in test [1] (setting [3]), 15.5 µM. Besides, in test [1], the “FC (fold change)” value came to 37.9.

B10: FKBP-213 (protein)
chain: HCRIKSRKGDVLHAHYTGKLEDGTEFDSSLPRNQPFVFSLGTGGVIKGWDQGLLGMCEGEKRKLVIPSELGYGERGWPPKIPGGATLVFEVELLKIER
modifications: Description of sequence: Construct Name: FKBP-213; Mutation(s): Q72R Q84G A117W DRD P43R M54A
Take B10: the results for the concentration for an effect of 90% (EC90) in test [1] (setting [2]) and in test [1] (setting [3]) were 0.0474 µM and 0.047 µM, respectively. Also, the “FC (fold change)” value in test [1] is 28.8.

B11: FKBP-259: FKBP13 DRD-AcGFP construct of Table 10 (protein)
chain: HCPIKSRKGDVLHMHYTGKLEDGTEFDSSLPRNQPFVFSLGTGERIKGWDQGLLGMCEGEKRKLVIPSELGYGERGWPPKIPGGATLVFKVELLKIER
modifications: Description of sequence: Construct Name: FKBP-259; Mutation(s): Q72R Q84E A117W V85R DRD E130K
As to B11, in the test with Jurkat cells (FIG. 40), the Basal came to 72.3, the FC is given as 90 and the Peak stood at 6232. Further, in the test on Jurkat cells (FIG. 47, BR1 (Biorep 1)), the Basal came to 70.7, the FC is reported as 95.97 and the “At 10 uM” value worked out at 6785. In addition, in the test on Jurkat cells (FIG. 47, BR2 (Biorep 2)), the Basal was determined as 77.3, the FC stood at 84.76 and the “At 10 uM” value was found to be 6552. Moreover, the FC with Jurkat cells (tacrolimus, FIGS. 29 and 30) was found to be 103. The “Fold Change” value in the test with Jurkat cells (tacrolimus) turned out to be 103.

B12: FKBP-206 (protein)
chain: HCPIKSRKGDVLHAHYTGKLEDGTEFDSSLPRNQPFVFSLGTGERIKGWDQGLLGMCEGEKRKLVIPSELGYGERGWPPKIPGGATLVFEVELLYIER
modifications: Description of sequence: Construct Name: FKBP-206; Mutation(s): Q72R Q84E A117W V85R DRD M54A K135Y
For B12, the EC90 in test [1] (setting [2]) was determined as 0.573 µM; in test [1] (setting [3]), 0.55 µM. Also, in test [1], the “FC (fold change)” value amounted to 50.1.

B13: FKBP-208 (protein)
chain: HCPIKSRKGDVLHAHYTGKLEDGTEFDSSLPRNQPFVFSLGTGERIKGWDQGLLGMCEGEKRKLVIPSELGYGERGWPPKIPGGATLVFRVELLKIER
modifications: Description of sequence: Construct Name: FKBP-208; Mutation(s): Q72R Q84E A117W V85R DRD M54A E130R
For the molecule B13, the values for the concentration for an effect of 90% (EC90) in test [1] (setting [2]) and in test [1] (setting [3]) were 4.22 µM and 4.12 µM, respectively. The “FC (fold change)” value in test [1] came out at 87.2.

B14: FKBP-209: FKBP13 DRD-AcGFP construct of Table 10 (protein)
chain: HCPIKSRKGDVLHAHYTGKLEDGTEFDSSLPRNQPFVFSLGTGERIKGWDQGLLGMCEGEWRKLVIPSELGYGERGWPPKIPGGATLVFEVELLKIER
modifications: Description of sequence: Construct Name: FKBP-209; Mutation(s): Q72R Q84E A117W V85R DRD M54A K101W
As for B14, the values for the EC90 in test [1] (setting [2]) and in test [1] (setting [3]) were 0.682 µM and 0.777 µM, respectively. Also, the “FC (fold change)” value in test [1] is 56.0.

B15: FKBP-210 (protein)
chain: HCPIKSRKGDVLHAHYTGKLEDGTEFDSSLPRNQPFVFSLGTGERIKGWDQGLLGMCLGEKRKLVIPSELGYGERGWPPKIPGGATLVFEVELLKIER
modifications: Description of sequence: Construct Name: FKBP-210; Mutation(s): Q72R Q84E A117W V85R DRD M54A E98L
On to B15, for which the EC90 in test [1] (setting [2]) was 0.191 µM; in test [1] (setting [3]) it was 0.208 µM. Also, the “FC (fold change)” value in test [1] was 32.8.

B16: FKBP-214: FKBP13 DRD-AcGFP construct of Table 10 (protein)
chain: HCRIKSRKGDVLHAHYTGKLEDGTEFDSSLPRNQPFVFSLGTGGRIKGWDQGLLGMCEGEKRKLVIPSELGYGERGWPPKIPGGATLVFEVELLKIER
modifications: Description of sequence: Construct Name: FKBP-214; Mutation(s): Q72R Q84G A117W V85R DRD P43R M54A
With B16, the concentration for an effect of 90% (EC90) in test [1] (setting [2]) was found to be 0.389 µM; in test [1] (setting [3]) it was 0.39 µM. The “FC (fold change)” value in test [1] came to 51.0.

What is called EC90 is the concentration at which the effect reaches the 90% level.
